Test results as given in PMC10904736, “A c-di-GMP signaling module controls responses to iron in Pseudomonas aeruginosa” (Nature Communications, 2024).

Experiments:
[1] = target: the molecule itself; experiment: cryo-EM structure; ImcA with the substrate analog GMPCPP, 10 mg/ml, 3.07 Å, C2 symmetry
[2] = target: the molecule itself; experiment: SEC + native gel or EMSA; purified CHASE4 domain in solvent

Protein | binding result [1] | stoichiometry N [2]
PA1851 protein (purified ImcA) (natural protein, ImcA (PA1851) of Pseudomonas aeruginosa PAO1; 6TM domain L47-E231, GGDEF domain R241-A393; Homodimer in the cryo-EM structure with GMPCPP; source: E. coli BL21 (DE3), purified (membrane fraction, DDM, Strep-Tactin, Superose 6)) MLARDSLVQAGLPDNPYARQLRNGFRWLRFEKELENEFREFLSWNSLMQRRAAIGVAFLIWALFIVADWMMVDIRLHPSLFEQLLGVRLGMIGLLLVVWPAAFLPSLRKVGDAIAPYCLLLINLAVLACDVLFEWHGVPRFTQLGATLGILAVFFPLGLAFWACVRLALLCLALNLAVFLLFGGEENLRTNLLNTLYNGLVVLICSFALYLQDYAQREQFLGRRLLGMMAEQDSLTGLVNRRYYELLAQRALEQGAREEKGVALILVDVDDFKAYNDHYGHPAGDAALRQLGVVLRQGARRPLDIAARLGGEEFAVLLYDSEEGNTLAIAERLRQAVEALGIEHLGSSAGPCLTISLGVAYSTSGMGLDALYREADRALYEAKDAGRNAVRVAFRQHDRLE | binds | 
CHASE4 domain of IsmP (CHASE4^IsmP) (domain or fragment, CHASE4 domain of IsmP (PA2072) of Pseudomonas aeruginosa PAO1; interface residues Q51, W55 and P247 lie outside 59-220; also called CHASE4 (IsmP^40-255); source: E. coli BL21, purified (HisTrap HP)) not shown |  | 2
